The results in this text go back to article doi:10.1101/479162v2.

Common to all, as to settings: KSI (substrate inhibition) also fitted
Substrate in data set [1]: O=[N+]([O-])c1ccc(OS(=O)(=O)O)cc1
Briefly: purified protein.

Substrate in data set [2]: O=C1OC2(c3ccc(OS(=O)(=O)O)cc3Oc3cc(OS(=O)(=O)O)ccc32)c2ccccc21
Briefly: fluorescence, Michaelis-Menten kinetics of purified enzyme. In kind it is biochemical, Ruegeria pomeroyi.

Substrate in data set [3]: O=C1OC2(c3ccc(OS(=O)(=O)O)cc3Oc3cc(OS(=O)(=O)O)ccc32)c2ccccc21
Briefly: purified protein.

Broadly, the Km is the concentration of substrate that gives half-maximal velocity. By kcat is commonly meant the maximal rate divided by the concentration of active sites.

B1: SpAS1 (arylsulfatase 1 from Silicibacter pomeroyi DSS-3), purified (Ruegeria pomeroyi DSS-3) (protein)
chain: MTQNRNILWIMCDQLRFDYLSCYGHERLNTPNIDKLAKRGVRFTNAYVQATVCGPSRMSAYTGRYVRSHGSTQNGIPLRVGEPTLGDHLRDVGMRNVLIGKTHMRPDLDGMKRLGIDPDSEIGARVGEGGFDAFDRDDGVHPTGYRKKEPAYNDYLRHAGFQAENPWEFWANSAEGKGGENQSGWLLTHADKPARVPEEHSETAYMTRRAMEFMEAAEKDGRPWCAHLSYIKPHWPYIVPAPYHDMFGPDDVKPAVRSDEELKAAHPLFKAMTEEVYSRNFARDEVREKVIPAYMGLIKQIDDQLGQLFAFMQERGLDENTMIVFTADHGDYLGDHWMGEKYLFYEAAAKVPLIIYDPSDKADATRGTVSDALVEMIDLAPTFVDYAGGVPPMHILEGKSLLPLLHDDDSSWDRQYVFSELDYSNLPARLKLGRDIQDCRATMVFDGRYKLVEVMGFAPILFDLEVDPDELKDLGRDPSAEEVRQRLTSALDAWHRNTRQRITKSDAAYRALDPVLRESDPDLMAGVIIGYWDEDEVEAEKRRIARILGENS
In the case of B1, in “purified protein [1]”, the Michaelis-Menten constant (Km) came to 7.1 ± 1.7 mM and the kcat is 34 ± 5 s⁻¹. Moreover, in data set [2], the Km stood at 4.5 ± 0.5 mM and the kcat was 0.116 ± 0.004 s⁻¹.

B2: SpAS1 (arylsulfatase 1 from Silicibacter pomeroyi DSS-3), purified (Ruegeria pomeroyi DSS-3; R429Q) (protein)
chain: MTQNRNILWIMCDQLRFDYLSCYGHERLNTPNIDKLAKRGVRFTNAYVQATVCGPSRMSAYTGRYVRSHGSTQNGIPLRVGEPTLGDHLRDVGMRNVLIGKTHMRPDLDGMKRLGIDPDSEIGARVGEGGFDAFDRDDGVHPTGYRKKEPAYNDYLRHAGFQAENPWEFWANSAEGKGGENQSGWLLTHADKPARVPEEHSETAYMTRRAMEFMEAAEKDGRPWCAHLSYIKPHWPYIVPAPYHDMFGPDDVKPAVRSDEELKAAHPLFKAMTEEVYSRNFARDEVREKVIPAYMGLIKQIDDQLGQLFAFMQERGLDENTMIVFTADHGDYLGDHWMGEKYLFYEAAAKVPLIIYDPSDKADATRGTVSDALVEMIDLAPTFVDYAGGVPPMHILEGKSLLPLLHDDDSSWDRQYVFSELDYSNLPAQLKLGRDIQDCRATMVFDGRYKLVEVMGFAPILFDLEVDPDELKDLGRDPSAEEVRQRLTSALDAWHRNTRQRITKSDAAYRALDPVLRESDPDLMAGVIIGYWDEDEVEAEKRRIARILGENS
With B2, in the data set “purified protein [1]”, the Michaelis-Menten constant (Km) was 7.3 ± 1.5 mM and the kcat is 26 ± 3 s⁻¹. For the same protein, in data set [2], the Km amounted to 1.0 ± 0.1 mM and the kcat worked out at 0.77 ± 0.04 s⁻¹.

B3: SpAS1 (arylsulfatase 1 from Silicibacter pomeroyi DSS-3), purified (Ruegeria pomeroyi DSS-3; K147E/M111T) (protein)
chain: MTQNRNILWIMCDQLRFDYLSCYGHERLNTPNIDKLAKRGVRFTNAYVQATVCGPSRMSAYTGRYVRSHGSTQNGIPLRVGEPTLGDHLRDVGMRNVLIGKTHMRPDLDGTKRLGIDPDSEIGARVGEGGFDAFDRDDGVHPTGYREKEPAYNDYLRHAGFQAENPWEFWANSAEGKGGENQSGWLLTHADKPARVPEEHSETAYMTRRAMEFMEAAEKDGRPWCAHLSYIKPHWPYIVPAPYHDMFGPDDVKPAVRSDEELKAAHPLFKAMTEEVYSRNFARDEVREKVIPAYMGLIKQIDDQLGQLFAFMQERGLDENTMIVFTADHGDYLGDHWMGEKYLFYEAAAKVPLIIYDPSDKADATRGTVSDALVEMIDLAPTFVDYAGGVPPMHILEGKSLLPLLHDDDSSWDRQYVFSELDYSNLPARLKLGRDIQDCRATMVFDGRYKLVEVMGFAPILFDLEVDPDELKDLGRDPSAEEVRQRLTSALDAWHRNTRQRITKSDAAYRALDPVLRESDPDLMAGVIIGYWDEDEVEAEKRRIARILGENS
Take B3: the Km worked out at 2.4 ± 0.2 mM in the data set “purified protein [3]” and 3.4 ± 0.3 mM in the data set “purified protein [1]”. Moreover, the kcat in the data set “purified protein [3]” came to 0.074 ± 0.002 s⁻¹; in the data set “purified protein [1]”, 100 ± 4 s⁻¹.
